B1: GpH7-A5/GpH7-B3 variant G236_04F/GpL16-k0 (antibody, human IgG1, kappa)
heavy 1: not shown
heavy 2: not shown
light: DIVMTQSPLSLPVTPGEPASISCQASESLVHSNRNTYLHWYLQKPGQSPQLLIYKVSNRFSGVPDRFSGSGSGTDFTLKISRVEAEDVGVYYCSQNTHVPPTFGQGTKVEIERTVAAPSVFIFPPSDEQLKSGTASVVCLLNNFYPREAKVQWKVDNALQSGNSQESVTEQDSKDSTYSLSSTLTLSKADYEKHKVYACEVTHQGLSSPVTKSFNRGEC
notes: Heterodimerized IgG1; mutation in the GpH7-B3 chain only; also called He Ab
B2: GpH7-A5/GpH7-B3 variant P331_07I/GpL16-k0 (antibody, human IgG1, kappa)
heavy 1: not shown
heavy 2: not shown
light: B1 light
notes: Heterodimerized anti-glypican-3 IgG1; mutation in one H chain only; also called He Ab
B3: GpH7-A5/GpH7-B3 variant L328_05P/GpL16-k0 (antibody, human IgG1, kappa)
heavy 1: not shown
heavy 2: not shown
light: B1 light
notes: as for B2
B4: GpH7-A5/GpH7-B3 variant N325_14T/GpL16-k0 (antibody, human IgG1, kappa)
heavy 1: not shown
heavy 2: not shown
light: B1 light
notes: as for B2
B5: GpH7-A5/GpH7-B3 variant P331_15Y/GpL16-k0 (antibody, human IgG1, kappa)
heavy 1: not shown
heavy 2: not shown
light: B1 light
notes: as for B2
B6: GpH7-A5/GpH7-B3 variant L328_20W/GpL16-k0 (antibody, human IgG1, kappa)
heavy 1: not shown
heavy 2: not shown
light: B1 light
notes: as for B2
B7: GpH7-A5/GpH7-B3 variant L328_03V/GpL16-k0 (antibody, human IgG1, kappa)
heavy 1: not shown
heavy 2: not shown
light: B1 light
notes: as for B2
B8: GpH7-A5/GpH7-B3 variant P331_03V/GpL16-k0 (antibody, human IgG1, kappa)
heavy 1: not shown
heavy 2: not shown
light: B1 light
notes: as for B2
B9: GpH7-A5/GpH7-B3 variant L328_09D/GpL16-k0 (antibody, human IgG1, kappa)
heavy 1: not shown
heavy 2: not shown
light: B1 light
notes: as for B2
B10: GpH7-A5/GpH7-B3 variant L235_12R/GpL16-k0 (antibody, human IgG1, kappa)
heavy 1: not shown
heavy 2: not shown
light: B1 light
notes: as for B1
B11: GpH7-A5/GpH7-B3 variant G236_05P/GpL16-k0 (antibody, human IgG1, kappa)
heavy 1: not shown
heavy 2: not shown
light: B1 light
notes: as for B1
B12: GpH7-A5/GpH7-B3 variant S324_05P/GpL16-k0 (antibody, human IgG1, kappa)
heavy 1: not shown
heavy 2: not shown
light: B1 light
notes: as for B2
B13: GpH7-A5/GpH7-B3 variant L328_04F/GpL16-k0 (antibody, human IgG1, kappa)
heavy 1: not shown
heavy 2: not shown
light: B1 light
notes: as for B2
B14: GpH7-A5/GpH7-B3 variant A330_05P/GpL16-k0 (antibody, human IgG1, kappa)
heavy 1: not shown
heavy 2: not shown
light: B1 light
notes: as for B2
B15: GpH7-A5/GpH7-B3 variant I332_10E/GpL16-k0 (antibody, human IgG1, kappa)
heavy 1: not shown
heavy 2: not shown
light: B1 light
notes: as for B2
B16: GpH7-A5/GpH7-B3 variant N325_16H/GpL16-k0 (antibody, human IgG1, kappa)
heavy 1: not shown
heavy 2: not shown
light: B1 light
notes: as for B2
B17: GpH7-A5/GpH7-B3 variant G236_03V/GpL16-k0 (antibody, human IgG1, kappa)
heavy 1: not shown
heavy 2: not shown
light: B1 light
notes: as for B1

Columns and labels:
FcγRIIb = target: T1, FcγRIIb (human, UniProt P31994 43-217); assay: SPR (Biacore), antibody captured, FcγR as analyte; binding relative to GpH7-A5/GpH7-B3/GpL16-k0 = 100
T1 construct: extracellular domain; also called 2b; not shown: His tag at the C terminus
T1 sequence (looked up): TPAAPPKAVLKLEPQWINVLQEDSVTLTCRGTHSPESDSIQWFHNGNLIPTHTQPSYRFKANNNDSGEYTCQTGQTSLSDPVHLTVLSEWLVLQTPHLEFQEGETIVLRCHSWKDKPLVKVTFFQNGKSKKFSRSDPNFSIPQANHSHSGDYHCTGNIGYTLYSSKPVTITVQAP
Protocol: (§1) The heterodimerized antibodies He Abs in which one of the H chains was introduced with an alteration were assayed for their binding activities to each activating FcγR and inhibitory FcγR according to the method described in Example 4. […] The activating FcγRs in FIGS. 26, 27, 28, and 29 are FcγRIa, FcγRIIa (R), FcγRIIa (H), and FcγRIIIa, respectively.
(§2) Analysis of interaction between objective antibody and the FcγR was carried out using Biacore T100 (GE Healthcare). HBS-EP+ (GE Healthcare) was used as the running buffer, and the measurement temperature was set to 25° C. Chips produced by immobilizing the antigen peptide by the amine coupling method to a Series S Sencor Chip CM5 (GE Healthcare), or alternatively, chips produced by allowing preliminarily biotinylated antigen peptides to interact with and immobilize onto a Series S Sensor Chip SA (certified) (GE Healthcare) were used. Antibodies of interest were captured onto an antigen peptide-immobilized chip, and allowed to interact to each FcγR diluted with running buffer. To regenerate and repeatedly use the chip, the antibodies captured on the chip were washed off by reacting 10 mM glycine-HCl, pH 1.5.

FcγRIIa H [1] = target: T2, FcγRIIa H (human, UniProt P12318 34-217); assay: as above
T2 construct: extracellular domain; also called FcγRIIa type H; 2aH; not shown: His tag at the C terminus
T2 sequence (looked up): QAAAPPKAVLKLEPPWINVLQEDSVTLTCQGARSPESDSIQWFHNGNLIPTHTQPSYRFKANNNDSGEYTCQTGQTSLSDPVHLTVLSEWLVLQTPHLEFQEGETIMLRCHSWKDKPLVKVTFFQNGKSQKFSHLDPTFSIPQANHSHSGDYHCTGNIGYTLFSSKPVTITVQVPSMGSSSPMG
Protocol: as §1, §2

FcγRIIa H [2] = target: T2, FcγRIIa H; assay: SPR (Biacore); He/Con_2aH divided by He/Con_2b (FcγRIIa H over FcγRIIb)
[3] = target: T3, FcγRIIb, extracellular domain with C-terminal His tag (human, UniProt P31994 43-217); assay: SPR (Biacore), relative binding vs GpH7-A5/GpH7-B3/GpL16-k0
T3 construct: extracellular domain; also called FcgRIIb; 2b; not shown: His tag at the C terminus
T3 sequence (looked up): T1 sequence (looked up)

[4] = target: T4, FcγRIIa H (FcγRIIa, allotype with His at position 131), extracellular domain with C-terminal His tag (human, UniProt P12318 34-217); assay: as above
T4 construct: extracellular domain; also called FcgRIIa H; 2aH; not shown: His tag at the C terminus
T4 sequence (looked up): T2 sequence (looked up)

[5] = target: T4, FcγRIIa H (FcγRIIa, allotype with His …); assay: SPR (Biacore); He/Con_2aH divided by He/Con_2b (FcγRIIb)

| Binder | He/Con_2b (FcγRIIb) | He/Con_2aH (FcγRIIa H [1]) | He_2aH/2b (IIaH/IIb) (FcγRIIa H [2]) | He/Con_2b [3] | He/Con_2aH [4] | He_2aH/2b (IIaH/IIb) [5] |
| --- | --- | --- | --- | --- | --- | --- |
| B1 | 39.3 % of control | 118 % of control | 3 ratio | – | – | – |
| B2 | – | – | – | 114 % of HeCon Ab (=100) | 77.4 % of HeCon Ab (=100) | 0.68 ratio |
| B3 | – | – | – | 65.1 % of HeCon Ab (=100) | 45.4 % of HeCon Ab (=100) | 0.7 ratio |
| B4 | – | – | – | 91.6 % of HeCon Ab (=100) | 62.7 % of HeCon Ab (=100) | 0.68 ratio |
| B5 | – | – | – | 114 % of HeCon Ab (=100) | 86 % of HeCon Ab (=100) | 0.75 ratio |
| B6 | – | – | – | 235 % of HeCon Ab (=100) | 113 % of HeCon Ab (=100) | 0.48 ratio |
| B7 | – | – | – | 126 % of HeCon Ab (=100) | 97.8 % of HeCon Ab (=100) | 0.78 ratio |
| B8 | – | – | – | 119 % of HeCon Ab (=100) | 82.5 % of HeCon Ab (=100) | 0.7 ratio |
| B9 | – | – | – | 199 % of HeCon Ab (=100) | 58.5 % of HeCon Ab (=100) | 0.29 ratio |
| B10 | – | 30.3 % of control | 3.16 ratio | – | – | – |
| B11 | 19 % of control | 63.5 % of control | 3.34 ratio | – | – | – |
| B12 | – | – | – | 94.7 % of HeCon Ab (=100) | 55.5 % of HeCon Ab (=100) | 0.59 ratio |
| B13 | – | – | – | 219 % of HeCon Ab (=100) | 71.7 % of HeCon Ab (=100) | 0.33 ratio |
| B14 | – | – | – | 137 % of HeCon Ab (=100) | 85.7 % of HeCon Ab (=100) | 0.63 ratio |
| B15 | – | – | – | 142 % of HeCon Ab (=100) | 108 % of HeCon Ab (=100) | 0.76 ratio |
| B16 | – | – | – | 70.1 % of HeCon Ab (=100) | 48 % of HeCon Ab (=100) | 0.68 ratio |
| B17 | 35.3 % of control | 119 % of control | 3.39 ratio | – | – | – |

— patent US20150344570A1 (published 2015)
